According to patent US20240117030A1 (Pfizer, published 2024):
Substitutions are numbered along the chain they refer to. Each block holds one binder with its values, some of them ahead of it.

Tests used:
Experiment in all cases: cell-based or functional assay
human IL-4 = target: T1, human IL-4 (human, UniProt P05112 25-153)
T1 sequence (looked up): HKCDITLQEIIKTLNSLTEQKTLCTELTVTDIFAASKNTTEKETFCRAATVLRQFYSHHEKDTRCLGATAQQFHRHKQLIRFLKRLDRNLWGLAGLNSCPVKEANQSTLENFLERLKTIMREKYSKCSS

human IL-13 = human IL-13 (human, UniProt P35225 35-146)
Chain of human IL-13 (P35225 35-146 limits assumed): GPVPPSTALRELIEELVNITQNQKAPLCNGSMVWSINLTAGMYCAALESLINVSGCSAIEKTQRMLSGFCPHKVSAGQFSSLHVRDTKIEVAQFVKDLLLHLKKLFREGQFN

[1] = target: T2, recombinant human IL-33 (wild type, Ser112-Thr270) (human, UniProt O95760 112-270)
T2 sequence (looked up): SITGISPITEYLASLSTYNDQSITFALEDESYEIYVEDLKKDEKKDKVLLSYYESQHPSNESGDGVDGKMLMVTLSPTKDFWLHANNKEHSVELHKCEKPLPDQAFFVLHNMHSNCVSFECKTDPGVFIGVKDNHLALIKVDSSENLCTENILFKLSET

[2] = target: T3, IL-33 (mm2), human IL-33 variant with all four cysteines changed to serine (human, UniProt O95760 112-270, limits assumed)
T3 sequence (looked up): T2 sequence (looked up) with C97S, C116S, C121S, C148S

a-hIL-4 bioassay IC50, pM) (human IL-4): 10.3 pM
a-hIL-13 bioassay (IC50, pM) (human IL-13): 9.01 pM
a-IL-33 bioassay (WT IL33) IC50 (pM) [1]: 112 pM
B1: IL13433-0006 (other)
heavy: EVQLVESGGGLVQPGGSLRLSCAASGFTFSSYAMSWVRQAPGKGLEWVASISSGDTTYYPDSVKGRFTISRDNAKNSLYLQMNSLRAEDTAVYYCARNEGYYFGLTLWGQGTLVTVSSASTKGPSVFPKAPSSKSTSGGTAALGCLVKDYFPEPVTVSWNSGALTSGVHTFPAVLQSSGLYSLSSSVTVPSSSLGTQTYICNVNHKPSNTKVDKKVEPKSCDKTHTCPPCPAPEAAGAPSVFLFPPKPKDTLMISRTPEVTCVVVDVSHEDPEVKFNWYVDGVEVHNAKTKPREEQYNSTYRVVSVLTVLHQDWLNGKEYKCKVSNKALPAPIEKTISKAKGQPREPQVCTLPPSREEMTKNQVSLWCLVKGFYPSDIAVEWESNGQPENNYKTTPPVLDSDGSFFLYSKLTVDKSRWQQGNVFSCSVMHEALHNHYTQKSLSLSPGK
chain 1: DIQMTQSPSSLSASVGDRVTITCKASQNINKHLDWYQQKPGKAPKLLIYFTNNLQTGVPSRFSGSGSGTDFTLTISSLQPEDFATYYCFQYNQGWTFGGGTKVEIKRTVAAPSVFIFPPSDEQLKSGTASVVCLLNNFYPREAKVQWKVDNALQSGNSQESVTEQDSKDSTYSLSSTLTLSKADYEKHKVYACEVTHQGLSSPVTKSFNRGECGGGGSEVTLRESGPALVKPTQTLTLTCTFSGFSLSNFGEGLSWIRQPPGKGLEWLAHIYWDDDKRYNPSLKSRLTISKDTSRNQVVLTMTNMDPVDTATYYCARRETVFYWYFDVWGQGTTVTVSSASTKGPSVFPEAPSSKSTSGGTAALGCLVKDYFPEPVTVSWNSGALTSGVHTFPAVLQSSGLYSLGSVVTVPSSSLGTQTYICNVNHKPSNTKVDKKVEPKSCDKTHTCPPCPAPEAAGAPSVFLFPPKPKDTLMISRTPEVTCVVVDVSHEDPEVKFNWYVDGVEVHNAKTKPREEQYNSTYRVVSVLTVLHQDWLNGKEYKCKVSNKALPAPIEKTISKAKGQPREPQVYTLPPCREEMTKNQVSLSCAVKGFYPSDIAVEWESNGQPENNYKTTPPVLDSDGSFFLVSKLTVDKSRWQQGNVFSCSVMHEALHNHYTQKSLSLSPGK
light 1: DIQMTQSPSSLSASVGDRVTITCKASESVDHFGWSLVHWYQQKPGKAPKLLIYRASNLESGVPSRFSGSGSGTDFTLTISSLQPEDFATYYCQQSNEDPWTFGGGTKVEIKRTVAAPSVFIFPPSDEQLKSGTASVSCLLNNFYPREAKVQWKVDNALQSGNSQESVTEQDSKDSTYSLDSTLTLSKADYEKHKVYACEVTHQGLSSPVTKSFNRGEC
light 2: B1 light 1 with E27Q, H31E, F32D, W34D, L36Y, V37M, H38N, R54A, W100P, D180K
chain 2: EVQLVESGGGLVQPGGSLRLSCAASGFTFSSYWMYWVRQAPGKGLEWVAAITPNAGEDYYPESVKGRFTISRDNAKNSLYLQMNSLRAEDTAVYYCARGHYYYTSYSLGYWGQGTLVTVSSASTKGPSVFPLAPSSKSTSGGTAALGCLVKDYFPEPVTVSWNSGALTSGVHTFPAVLQSSGLYSLSSVVTVPSSSLGTQTYICNVNHKPSNTKVDKKVEPKSC

a-hIL-4 bioassay IC50, pM) (human IL-4): 66.9 pM
a-hIL-13 bioassay (IC50, pM) (human IL-13): 20.3 pM
a-IL-33 bioassay cys mutant IL33) IC50 (pM) [2]: 182 pM
B2: IL13433-0607 (other)
heavy: B1 heavy with S53T, L107Q, Q110R, M429L, N435S
chain 1: B1 chain 1 with K24R, N28P, N30S, N280S, P281T, S285T, M650L, N656S
light 1: B1 light 1 with K24R, S56D, N57S, S60T
light 2: DIQMTQSPSSLSASVGDRVTITCRASQSVDEEGDSYMNWYQQKPGKAPKLLIYAASNLESGVPSRFSGSGSGTDFTLTISSLQPEDFATYYCQQSHKDPPTFGGGTKVEIKRTVAAPSVFIFPPSDEQLKSGTASVSCLLNNFYPREAKVQWKVDNALQSGNSQESVTEQDSKDSTYSLKSTLTLSKADYEKHKVYACEVTHQGLSSPVTKSFNRGEC
chain 2: B1 chain 2

a-hIL-4 bioassay IC50, pM) (human IL-4): 16.5 pM
a-hIL-13 bioassay (IC50, pM) (human IL-13): 7.58 pM
a-IL-33 bioassay (WT IL33) IC50 (pM) [1]: 12 pM
B3: IL13433-1270 (other)
heavy: EVQLVESGGGLVQPGGSLRLSCAASGFTFSSYWMYWVRQAPGKGLEWVAAITPNAGEDYYPESVKGRFTISRDNAKNSLYLQMNSLRAEDTAVYYCARGQYYYTKYSLGYWGQGTLVTVSSASTKGPSVFPKAPSSKSTSGGTAALGCLVKDYFPEPVTVSWNSGALTSGVHTFPAVLQSSGLYSLSSSVTVPSSSLGTQTYICNVNHKPSNTKVDKKVEPKSCDKTHTCPPCPAPEAAGAPSVFLFPPKPKDTLMISRTPEVTCVVVDVSHEDPEVKFNWYVDGVEVHNAKTKPREEQYNSTYRVVSVLTVLHQDWLNGKEYKCKVSNKALPAPIEKTISKAKGQPREPQVCTLPPSREEMTKNQVSLWCLVKGFYPSDIAVEWESNGQPENNYKTTPPVLDSDGSFFLYSKLTVDKSRWQQGNVFSCSVLHEALHSHYTQKSLSLSPGK
chain 1: DIQMTQSPSSLSASVGDRVTITCKASESVDHFGWSLVHWYQQKPGKAPKLLIYRASNLESGVPSRFSGSGSGTDFTLTISSLQPEDFATYYCQQSNEDPWTFGGGTKVEIKRTVAAPSVFIFPPSDEQLKSGTASVVCLLNNFYPREAKVQWKVDNALQSGNSQESVTEQDSKDSTYSLSSTLTLSKADYEKHKVYACEVTHQGLSSPVTKSFNRGECGGGGSEVTLRESGPALVKPTQTLTLTCTFSGFSLSNFGEGLSWIRQPPGKGLEWLAHIYWDDDKRYNPSLKSRLTISKDTSRNQVVLTMTNMDPVDTATYYCARRETVFYWYFDVWGQGTTVTVSSASTKGPSVFPEAPSSKSTSGGTAALGCLVKDYFPEPVTVSWNSGALTSGVHTFPAVLQSSGLYSLGSVVTVPSSSLGTQTYICNVNHKPSNTKVDKKVEPKSCDKTHTCPPCPAPEAAGAPSVFLFPPKPKDTLMISRTPEVTCVVVDVSHEDPEVKFNWYVDGVEVHNAKTKPREEQYNSTYRVVSVLTVLHQDWLNGKEYKCKVSNKALPAPIEKTISKAKGQPREPQVYTLPPCREEMTKNQVSLSCAVKGFYPSDIAVEWESNGQPENNYKTTPPVLDSDGSFFLVSKLTVDKSRWQQGNVFSCSVLHEALHSHYTQKSLSLSPGK
light 1: DIQMTQSPSSLSASVGDRVTITCRASQPIHNHLDWYQQKPGKAPKLLIYFGKNLQEGVPSRFSGSGSGTDFTLTISSLQPEDFATYYCFQYKKGWSFGGGTKVEIKRTVAAPSVFIFPPSDEQLKSGTASVSCLLNNFYPREAKVQWKVDNALQSGNSQESVTEQDSKDSTYSLDSTLTLSKADYEKHKVYACEVTHQGLSSPVTKSFNRGEC
light 2: B2 light 2 with H96N
chain 2: EVQLVESGGGLVQPGGSLRLSCAASGFTFSSYAMSWVRQAPGKGLEWVASISSGDTTYYPDSVKGRFTISRDNAKNSLYLQMNSLRAEDTAVYYCARNEGYYFGLTLWGQGTLVTVSSASTKGPSVFPLAPSSKSTSGGTAALGCLVKDYFPEPVTVSWNSGALTSGVHTFPAVLQSSGLYSLSSVVTVPSSSLGTQTYICNVNHKPSNTKVDKKVEPKSC
